Laboratory results taken from paper doi:10.1101/2020.02.13.946640 (bioRxiv, 2020).
Like-named read-outs stand apart in the source and are kept apart here. Values belong to the molecule of their own block, whether it stands above or below them.

T1: a subunit of Thermus thermophilus V/A-ATPase (Thermus thermophilus, UniProt Q5SIT6 1-652)
T1 sequence (looked up): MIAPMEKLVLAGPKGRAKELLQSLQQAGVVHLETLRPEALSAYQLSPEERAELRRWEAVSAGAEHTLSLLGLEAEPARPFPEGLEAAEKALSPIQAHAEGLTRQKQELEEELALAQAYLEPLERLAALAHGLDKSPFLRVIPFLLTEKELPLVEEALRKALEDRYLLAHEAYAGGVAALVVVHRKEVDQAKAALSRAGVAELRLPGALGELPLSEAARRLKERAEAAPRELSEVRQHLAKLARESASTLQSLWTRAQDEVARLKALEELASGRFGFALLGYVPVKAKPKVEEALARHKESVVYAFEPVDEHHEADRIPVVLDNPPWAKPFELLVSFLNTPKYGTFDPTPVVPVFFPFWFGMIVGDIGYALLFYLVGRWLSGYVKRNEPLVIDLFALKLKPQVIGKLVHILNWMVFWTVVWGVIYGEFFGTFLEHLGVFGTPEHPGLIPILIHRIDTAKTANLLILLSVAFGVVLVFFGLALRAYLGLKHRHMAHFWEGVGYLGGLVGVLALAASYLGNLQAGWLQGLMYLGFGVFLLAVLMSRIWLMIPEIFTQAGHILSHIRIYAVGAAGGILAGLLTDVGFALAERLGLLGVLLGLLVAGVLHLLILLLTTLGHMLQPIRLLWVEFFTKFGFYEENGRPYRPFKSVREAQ

B1: D subunit of Thermus thermophilus V/A-ATPase (natural protein, UniProt O87880 1-223, looked up)
chain: MSQVSPTRMNLLQRRGQLRLAQKGVDLLKKKRDALVAEFFGLVREAMEARKALDQAAKEAYAALLLAQAFDGPEVVAGAALGVPPLEGVEAEVENVWGSKVPRLKATFPDGALLSPVGTPAYTLEASRAFRRYAEALIRVANTETRLKKIGEEIKKTTRRVNALEQVVIPGIRAQIRFIQQVLEQREREDTFRLKRIKGKIEAREAEEEGGRPNPQVEIGAGL
B2: d subunit of Thermus thermophilus V/A-ATPase (natural protein, UniProt P74902 1-323, looked up)
chain: MADDFAYLNARVRVRRGTLLKESFFQEALDLSFADFLRLLSETVYGGELAGQGLPDVDRAVLRTQAKLVGDLPRLVTGEAREAVRLLLLRNDLHNLQALLRAKATGRPFEEVLLLPGTLREEVWRQAYEAQDPAGMAQVLAVPGHPLARALRAVLRETQDLARVEALLAKRFFEDVAKAAKGLDQPALRDYLALEVDAENLRTAFKLQGSGLAPDAFFLKGGRFVDRVRFARLMEGDYAVLDELSGTPFSGLSGVRDLKALERGLRCVLLKEAKKGVQDPLGVGLVLAYVKEREWEAVRLRLLARRAYFGLPRAQVEEEVVCP

Legend:
Test in all cases: cryo-EM structure
[1] = target: c subunit of Thermus thermophilus V/A-ATPase, His3-tagged (Thermus thermophilus) (UniProt Q5SIT7)
[2] = target: c subunit of Thermus thermophilus V/A-ATPase, His3-tagged (Thermus thermophilus) (UniProt Q5SIT7); remark: listed apart in the source
[3] = target: B2
[4] = target: T1, a subunit of Thermus thermophilus …

stoichiometry N [1]: 12
stoichiometry N [2]: 12
Molecule: c subunit of Thermus thermophilus V/A-ATPase, His3-tagged (from UniProt Q5SIT7 1-99) (natural protein)

Molecule: B1
binding result [3]: binds

Molecule: B2
binding result [4]: binds
